Experimental data: patent publication US20190135928A1 (Bristol-Myers Squibb, published 2019)

Experiments:
Assay in all cases: cell-based or functional assay
[1] = biological target: T1, human TL1A (in-house) (human, UniProt O95150 57-251, limits assumed)
T1 sequence: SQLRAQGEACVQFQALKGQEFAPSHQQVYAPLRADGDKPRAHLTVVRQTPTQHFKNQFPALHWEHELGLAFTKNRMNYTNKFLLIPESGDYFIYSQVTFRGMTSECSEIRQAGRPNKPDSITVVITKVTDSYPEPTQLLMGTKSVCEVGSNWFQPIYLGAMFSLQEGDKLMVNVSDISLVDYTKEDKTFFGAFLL

[2] = biological target: T1, human TL1A (in-house); remark: listed apart in the source
[3] = biological target: T2, TL1A expressed on transfected CHO cells (Homo sapiens (Human), UniProt O95150 1-251)
T2 sequence: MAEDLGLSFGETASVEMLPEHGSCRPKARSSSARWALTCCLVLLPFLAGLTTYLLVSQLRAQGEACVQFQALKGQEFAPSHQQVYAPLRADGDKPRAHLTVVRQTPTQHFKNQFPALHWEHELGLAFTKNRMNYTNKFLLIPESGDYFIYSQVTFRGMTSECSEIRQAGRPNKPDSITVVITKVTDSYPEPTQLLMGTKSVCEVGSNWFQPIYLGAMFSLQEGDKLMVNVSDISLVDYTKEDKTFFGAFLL

[4] = biological target: T1, human TL1A (in-house); remark: listed apart in the source

B1: TL1A antibody 10A4.F7.2E8 huIgG4 (antibody, V domains shown)
VH: QLQLQESGPGLVKPSETLSLTCTVSGGSISSRSYYWGWIRQPPGKGLEWIGSIYYNGRTYYNPSLKSRVTISVDTSKNQFSLKLSSVTAADTAVYYCAREDYGDYGAFDIWGQGTMVTVSS
VL: AIQLTQSPSSLSASVGDRVTITCRASQGISSALAWYQQKPGKAPKLLIYDASSLESGVPSRFSGSGSGTDFTLTISSLQPEDFATYYCQQFNSYPLTFGGGTKVEIKR
For B1, the “EC50, TL1A + IL-12 + IL-18 driven IFNg (Hu PBMCs) (2.45 mg/ml), Donor A, ELN ref 97305-032” value [1] was 0.131 nM, the “EC50, TL1A + IL-12 + IL-18 driven IFNg (Hu PBMCs) (2.45 mg/ml), Donor A, ELN ref 97305-037” value [1] was 0.138 nM and the “EC50, TL1A + IL-12 + IL-18 driven IFNg (Hu PBMCs) (2.45 mg/ml), Donor A, ELN ref 97305-040” value [1] was 0.167 nM. For the same binder, the “EC50, TL1A + IL-12 + IL-18 driven IFNg (Hu PBMCs) (2.45 mg/ml), Donor A, ELN ref 97305-041” value [1] was 0.209 nM, the “EC50, TL1A + IL-12 + IL-18 driven IFNg (Hu PBMCs) (2.45 mg/ml), Donor A, ELN ref 97305-044” value [1] was 0.272 nM and the “EC50, TL1A + IL-12 + IL-18 driven IFNg (Hu PBMCs) (2.45 mg/ml), Donor A, ELN ref 97305-047” value [1] was 0.095 nM. For the same binder, the “EC50, TL1A + IL-12 + IL-18 driven IFNg (Hu PBMCs) (2.45 mg/ml), Donor A, ELN ref 97305-050” value [1] was 0.209 nM, the “EC50, TL1A + IL-12 + IL-18 driven IFNg (Hu PBMCs) (2.45 mg/ml), Donor A, ELN ref 97305-061” value [1] was 0.26 nM and the “EC50, TL1A + IL-12 + IL-18 driven IFNg (Hu PBMCs) (2.45 mg/ml), Donor A, ELN ref 99932-005481” value [1] was 0.301 nM. For the same binder, the “EC50, TL1A + IL-12 + IL-18 driven IFNg (Hu PBMCs) (2.45 mg/ml), Donor B, ELN ref 97305-032” value [1] was 0.197 nM, the “EC50, TL1A + IL-12 + IL-18 driven IFNg (Hu PBMCs) (2.45 mg/ml), Donor B, ELN ref 97305-037” value [1] was 0.289 nM and the “EC50, TL1A + IL-12 + IL-18 driven IFNg (Hu PBMCs) (2.45 mg/ml), Donor B, ELN ref 97305-040” value [1] was 0.146 nM. The “EC50, TL1A + IL-12 + IL-18 driven IFNg (Hu PBMCs) (2.45 mg/ml), Donor B, ELN ref 97305-041” value [1] was 0.283 nM, the “EC50, TL1A + IL-12 + IL-18 driven IFNg (Hu PBMCs) (2.45 mg/ml), Donor B, ELN ref 97305-044” value [1] was 0.211 nM and the “EC50, TL1A + IL-12 + IL-18 driven IFNg (Hu PBMCs) (2.45 mg/ml), Donor B, ELN ref 97305-047” value [1] was 0.185 nM. The “EC50, TL1A + IL-12 + IL-18 driven IFNg (Hu PBMCs) (2.45 mg/ml), Donor B, ELN ref 97305-050” value [1] was 0.163 nM, the “EC50, TL1A + IL-12 + IL-18 driven IFNg (Hu PBMCs) (2.45 mg/ml), Donor B, ELN ref 97305-061” value [1] was 0.152 nM and the “EC50, TL1A + IL-12 + IL-18 driven IFNg (Hu PBMCs) (2.45 mg/ml), Donor B, ELN ref 99932-005481” value [1] was 0.196 nM. For the same binder, the “EC50, TL1A + IL-12 + IL-18 driven IFNg (Hu PBMCs) (5.9 mg/ml), Donor A, ELN ref 99932-005481” value [2] was 0.295 nM, the “EC50, TL1A + IL-12 + IL-18 driven IFNg (Hu PBMCs) (5.9 mg/ml), Donor B, ELN ref 99932-005481” value [2] was 0.241 nM and the “EC50, TL1A-expressing CHO cells + IL-12 + IL-18 driven IFNg (Hu PBMCs)(2.45 mg/ml), Donor A, ELN ref 97305-034” value [3] was 0.234 nM. For the same binder, the “EC50, TL1A-expressing CHO cells + IL-12 + IL-18 driven IFNg (Hu PBMCs)(2.45 mg/ml), Donor B, ELN ref 97305-034” value [3] was 0.214 nM, the “EC50, TL1A + IL-12 + IL-18 driven IFNg (Hu Tcells) (2.45 mg/ml), Donor A, ELN ref 97305-062” value [4] was 0.18 nM and the “EC50, TL1A + IL-12 + IL-18 driven IFNg (Hu Tcells) (2.45 mg/ml), Donor A, ELN ref 97305-064” value [4] was 0.235 nM. For the same binder, the “EC50, TL1A + IL-12 + IL-18 driven IFNg (Hu Tcells) (2.45 mg/ml), Donor A, ELN ref 97305-066” value [4] was 0.331 nM, the “EC50, TL1A + IL-12 + IL-18 driven IFNg (Hu Tcells) (2.45 mg/ml), Donor A, ELN ref 97305-077” value [4] was 0.241 nM and the “EC50, TL1A + IL-12 + IL-18 driven IFNg (Hu Tcells) (2.45 mg/ml), Donor A, ELN ref 97305-082” value [4] was 0.034 nM. The “EC50, TL1A + IL-12 + IL-18 driven IFNg (Hu Tcells) (2.45 mg/ml), Donor A, ELN ref 99932-003797” value [4] was 0.355 nM, the “EC50, TL1A + IL-12 + IL-18 driven IFNg (Hu Tcells) (2.45 mg/ml), Donor A, ELN ref 99932-004083” value [4] was 0.393 nM and the “EC50, TL1A + IL-12 + IL-18 driven IFNg (Hu Tcells) (2.45 mg/ml), Donor A, ELN ref 99932-004084” value [4] was 0.367 nM. For the same binder, the “EC50, TL1A + IL-12 + IL-18 driven IFNg (Hu Tcells) (2.45 mg/ml), Donor A, ELN ref 99932-004439” value [4] was 0.185 nM, the “EC50, TL1A + IL-12 + IL-18 driven IFNg (Hu Tcells) (2.45 mg/ml), Donor A, ELN ref 99932-004774” value [4] was 0.22 nM and the “EC50, TL1A + IL-12 + IL-18 driven IFNg (Hu Tcells) (2.45 mg/ml), Donor A, ELN ref 99932-004955” value [4] was 0.172 nM. The “EC50, TL1A + IL-12 + IL-18 driven IFNg (Hu Tcells) (2.45 mg/ml), Donor B, ELN ref 97305-062” value [4] was 0.259 nM, the “EC50, TL1A + IL-12 + IL-18 driven IFNg (Hu Tcells) (2.45 mg/ml), Donor B, ELN ref 97305-064” value [4] was 0.199 nM and the “EC50, TL1A + IL-12 + IL-18 driven IFNg (Hu Tcells) (2.45 mg/ml), Donor B, ELN ref 97305-066” value [4] was 0.347 nM. The “EC50, TL1A + IL-12 + IL-18 driven IFNg (Hu Tcells) (2.45 mg/ml), Donor B, ELN ref 97305-077” value [4] was 0.258 nM, the “EC50, TL1A + IL-12 + IL-18 driven IFNg (Hu Tcells) (2.45 mg/ml), Donor B, ELN ref 97305-082” value [4] was 0.039 nM and the “EC50, TL1A + IL-12 + IL-18 driven IFNg (Hu Tcells) (2.45 mg/ml), Donor B, ELN ref 99932-003797” value [4] was 0.312 nM. The “EC50, TL1A + IL-12 + IL-18 driven IFNg (Hu Tcells) (2.45 mg/ml), Donor B, ELN ref 99932-004083” value [4] was 0.311 nM, the “EC50, TL1A + IL-12 + IL-18 driven IFNg (Hu Tcells) (2.45 mg/ml), Donor B, ELN ref 99932-004084” value [4] was 0.303 nM and the “EC50, TL1A + IL-12 + IL-18 driven IFNg (Hu Tcells) (2.45 mg/ml), Donor B, ELN ref 99932-004439” value [4] was 0.194 nM.
